Test results: article PMC5758883, “Analysis of the natively unstructured RNA/protein-recognition core in the Escherichia coli RNA degradosome and its interactions with regulatory RNA/Hfq complexes” (Nucleic Acids Research, 2017)

T1: RNase E 603–850 with a C-terminal hexahistidine tag (Escherichia coli, UniProt P21513 603-850)
T1 construct: also called Rne; source: E. coli BL21 (DE3), co-expressed with RhlB (pRSFDuet-1) with or without enolase (pET11-a); alone: RhlB and enolase removed on the column with 8 M urea; not shown: His6, C-terminal, kept
T1 sequence (looked up): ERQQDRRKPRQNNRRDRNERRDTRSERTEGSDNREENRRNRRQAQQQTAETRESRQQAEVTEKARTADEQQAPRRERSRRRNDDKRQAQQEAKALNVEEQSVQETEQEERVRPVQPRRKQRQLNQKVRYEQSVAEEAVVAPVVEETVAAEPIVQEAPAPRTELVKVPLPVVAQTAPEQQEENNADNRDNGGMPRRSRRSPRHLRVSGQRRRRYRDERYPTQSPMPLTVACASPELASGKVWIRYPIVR

B1: DEAD-box helicase RhlB (enzyme, Escherichia coli, UniProt P0A8J8 1-421, looked up)
chain: MSKTHLTEQKFSDFALHPKVVEALEKKGFHNCTPIQALALPLTLAGRDVAGQAQTGTGKTMAFLTSTFHYLLSHPAIADRKVNQPRALIMAPTRELAVQIHADAEPLAEATGLKLGLAYGGDGYDKQLKVLESGVDILIGTTGRLIDYAKQNHINLGAIQVVVLDEADRMYDLGFIKDIRWLFRRMPPANQRLNMLFSATLSYRVRELAFEQMNNAEYIEVEPEQKTGHRIKEELFYPSNEEKMRLLQTLIEEEWPDRAIIFANTKHRCEEIWGHLAADGHRVGLLTGDVAQKKRLRILDEFTRGDLDILVATDVAARGLHIPAVTHVFNYDLPDDCEDYVHRIGRTGRAGASGHSISLACEEYALNLPAIETYIGHSIPVSKYNPDALMTDLPKPLRLTRPRTGNGPRRTGAPRNRRRSG
notes: E. coli DEAD-box helicase RhlB; HDX-MS covers both RecA-like domains and the tail 400–421, so probably the whole protein; also called RhIB
B2: enolase (enzyme, Escherichia coli)
chain: MSKIVKIIGREIIDSRGNPTVEAEVHLEGGFVGMAAAPSGASTGSREALELRDGDKSRFLGKGVTKAVAAVNGPIAQALIGKDAKDQAGIDKIMIDLDGTENKSKFGANAILAVSLANAKAAAAAKGMPLYEHIAELNGTPGKYSMPVPMMNIINGGEHADNNVDIQEFMIQPVGAKTVKEAIRMGSEVFHHLAKVLKAKGMNTAVGDEGGYAPNLGSNAEALAVIAEAVKAAGYELGKDITLAMDCAASEFYKDGKYVLAGEGNKAFTSEEFTHFLEELTKQYPIVSIEDGLDESDWDGFAYQTKVLGDKIQLVGDDLFVTNTKILKEGIEKGIANSILIKFNQIGSLTETLAAIKMAKDAGYTAVISHRSGETEDATIADLAVGTAAGQIKTGSMSRSDRVAKYNQLIRIEEALGEKAPYNGRKEIKGQA
notes: E. coli enolase; No tag is named for enolase in either construct; also called glycolytic enzyme enolase; enolase dimer; source: E. coli Rosetta (DE3), pETDuet, co-expressed and co-purified with His6-AR2–EBS

How the values were obtained:
[1] = target: T1, RNase E 603–850 with a C-terminal …; assay: SEC-MALS; co-expressed, co-purified ternary and binary complexes loaded at 5.6 and 4.0 mg/ml on Superdex 200 10/300; 50 mM Tris–HCl pH 7.5, 100 mM NaCl, 50 mM KCl, 5 mM MgCl2, 2 mM DTT; conditions: both partners purified
[2] = target: the molecule itself; assay: native MS; native ESI and ion-mobility mass spectrometry of the co-purified ternary and binary complexes

Binder | stoichiometry N [1] | stoichiometry N [2]
B1 | 1 | –
B2 | 2 | 2
